Sequences and labels used below:
B1: ZNF511 (parent)
chain: EPLPVERDPAAGAAPFRFVARPVR
B2: FAM189A2 (parent)
chain: CALNALTTTVCLVAAALRYLQIFA
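Further: lentivirally expressed fusions sorted by FACS into six bins by GFP to DsRed ratio, PSI derived from sequencing read proportions per bin multiplied by bin number.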

Variants of B1 are the subject of the first data set. Kind of data set: protein stability index of a GFP-peptide fusion (GPS, HEK-293T) (PSI 1-6); higher = more stable. To be noted: c terminus: a fixed tail appended.
As for EPIPVERDPAAGAAPFRFVARPVR [L3I], the protein stability index came out at 2.45.

Turning to EPDPVERDPAAGAAPFRFVARPVR [L3D], the protein stability index came out at 2.1.

Take EPEPVERDPAAGAAPFRFVARPVR [L3E]: the protein stability index came to 2.97.

For the variant EPFPVERDPAAGAAPFRFVARPVR [L3F], the protein stability index amounted to 2.01.

With EPHPVERDPAAGAAPFRFVARPVR [L3H], the protein stability index came to 2.56.

Take EPAPVERDPAAGAAPFRFVARPVR [L3A]: the protein stability index worked out at 2.46.

EPCPVERDPAAGAAPFRFVARPVR [L3C]: the protein stability index turned out to be 2.16.

With EPGPVERDPAAGAAPFRFVARPVR [L3G], the protein stability index was 2.23.

Regarding EALPVERDPAAGAAPFRFVARPVR [P2A], the protein stability index stood at 2.66.

As for EQLPVERDPAAGAAPFRFVARPVR [P2Q], the protein stability index amounted to 1.94.

Turning to EILPVERDPAAGAAPFRFVARPVR [P2I], the protein stability index stood at 2.12.

For the variant EHLPVERDPAAGAAPFRFVARPVR [P2H], the protein stability index was 2.12.

On to EVLPVERDPAAGAAPFRFVARPVR [P2V], for which the protein stability index is 2.03.

On to EFLPVERDPAAGAAPFRFVARPVR [P2F], for which the protein stability index turned out to be 1.72.

ESLPVERDPAAGAAPFRFVARPVR [P2S]: the protein stability index was determined as 2.84.

Turning to ECLPVERDPAAGAAPFRFVARPVR [P2C], the protein stability index came out at 2.08.

Regarding EYLPVERDPAAGAAPFRFVARPVR [P2Y], the protein stability index is 2.45.

ENLPVERDPAAGAAPFRFVARPVR [P2N]: the protein stability index was determined as 1.99.

As to EDLPVERDPAAGAAPFRFVARPVR [P2D], the protein stability index is 2.55.

As for ERLPVERDPAAGAAPFRFVARPVR [P2R], the protein stability index was determined as 2.36.

For EELPVERDPAAGAAPFRFVARPVR [P2E], the protein stability index is 2.23.

In the case of EGLPVERDPAAGAAPFRFVARPVR [P2G], the protein stability index worked out at 2.75.

For EMLPVERDPAAGAAPFRFVARPVR [P2M], the protein stability index came out at 2.3.

In the case of ELLPVERDPAAGAAPFRFVARPVR [P2L], the protein stability index turned out to be 2.37.

Regarding EWLPVERDPAAGAAPFRFVARPVR [P2W], the protein stability index worked out at 1.8.

Take EKLPVERDPAAGAAPFRFVARPVR [P2K]: the protein stability index was 2.06.

For ETLPVERDPAAGAAPFRFVARPVR [P2T], the protein stability index was 2.1.

Turning to QPLPVERDPAAGAAPFRFVARPVR [E1Q], the protein stability index is 2.9.

As to FPLPVERDPAAGAAPFRFVARPVR [E1F], the protein stability index is 2.85.

Regarding DPLPVERDPAAGAAPFRFVARPVR [E1D], the protein stability index worked out at 2.73.

Take VPLPVERDPAAGAAPFRFVARPVR [E1V]: the protein stability index was determined as 2.27.

On to TPLPVERDPAAGAAPFRFVARPVR [E1T], for which the protein stability index came to 2.44.

Consider SPLPVERDPAAGAAPFRFVARPVR [E1S], for which the protein stability index is 2.13.

In the case of PPLPVERDPAAGAAPFRFVARPVR [E1P], the protein stability index turned out to be 2.23.

Consider GPLPVERDPAAGAAPFRFVARPVR [E1G], for which the protein stability index amounted to 1.85.

IPLPVERDPAAGAAPFRFVARPVR [E1I]: the protein stability index was determined as 2.12.

As for YPLPVERDPAAGAAPFRFVARPVR [E1Y], the protein stability index came out at 1.77.

Take HPLPVERDPAAGAAPFRFVARPVR [E1H]: the protein stability index stood at 2.2.

As for LPLPVERDPAAGAAPFRFVARPVR [E1L], the protein stability index worked out at 2.69.

Regarding MPLPVERDPAAGAAPFRFVARPVR [E1M], the protein stability index was determined as 2.38.

Regarding CPLPVERDPAAGAAPFRFVARPVR [E1C], the protein stability index stood at 2.64.

As for RPLPVERDPAAGAAPFRFVARPVR [E1R], the protein stability index was found to be 2.39.

Consider NPLPVERDPAAGAAPFRFVARPVR [E1N], for which the protein stability index was found to be 2.

As for KPLPVERDPAAGAAPFRFVARPVR [E1K], the protein stability index worked out at 2.06.

For the variant APLPVERDPAAGAAPFRFVARPVR [E1A], the protein stability index was determined as 2.57.

Take WPLPVERDPAAGAAPFRFVARPVR [E1W]: the protein stability index came out at 2.35.

In a further data set the parent is B2. The description is as above. The following applies: c terminus: a fixed tail appended.
For CALNALTTTVCLVAAALRYLQIFG [A24G], the protein stability index was 4.19.

For the variant CALNALTTTVCLVAAALRYLQIFN [A24N], the protein stability index turned out to be 1.88.

As to CALNALTTTVCLVAAALRYLQIFI [A24I], the protein stability index was found to be 2.19.

Consider CALNALTTTVCLVAAALRYLQIFT [A24T], for which the protein stability index turned out to be 3.23.

Regarding CALNALTTTVCLVAAALRYLQIFP [A24P], the protein stability index worked out at 2.09.

With CALNALTTTVCLVAAALRYLQIFE [A24E], the protein stability index was found to be 2.8.

Turning to CALNALTTTVCLVAAALRYLQIFL [A24L], the protein stability index turned out to be 2.63.

With CALNALTTTVCLVAAALRYLQIFW [A24W], the protein stability index came to 2.96.

As to CALNALTTTVCLVAAALRYLQIFH [A24H], the protein stability index came out at 3.64.

In the case of CALNALTTTVCLVAAALRYLQIFS [A24S], the protein stability index was 4.25.

On to CALNALTTTVCLVAAALRYLQIFY [A24Y], for which the protein stability index came out at 3.32.

Consider CALNALTTTVCLVAAALRYLQIFD [A24D], for which the protein stability index came out at 2.51.

Consider CALNALTTTVCLVAAALRYLQIFC [A24C], for which the protein stability index worked out at 3.96.

As for CALNALTTTVCLVAAALRYLQIFV [A24V], the protein stability index came out at 3.43.

CALNALTTTVCLVAAALRYLQIFF [A24F]: the protein stability index was found to be 2.59.

Take CALNALTTTVCLVAAALRYLQIFM [A24M]: the protein stability index came out at 2.65.

On to CALNALTTTVCLVAAALRYLQSFA [I22S], for which the protein stability index turned out to be 3.43.

With CALNALTTTVCLVAAALRYLQTFA [I22T], the protein stability index was 2.33.

For CALNALTTTVCLVAAALRYLQVFA [I22V], the protein stability index was found to be 2.72.

Regarding CALNALTTTVCLVAAALRYLQHFA [I22H], the protein stability index was determined as 2.75.

CALNALTTTVCLVAAALRYLQPFA [I22P]: the protein stability index amounted to 4.03.

Take CALNALTTTVCLVAAALRYLQLFA [I22L]: the protein stability index was found to be 2.83.

Turning to CALNALTTTVCLVAAALRYLQYFA [I22Y], the protein stability index amounted to 2.44.

In the case of CALNALTTTVCLVAAALRYLQFFA [I22F], the protein stability index is 2.44.

In the case of CALNALTTTVCLVAAALRYLQKFA [I22K], the protein stability index came out at 2.14.

As to CALNALTTTVCLVAAALRYLQGFA [I22G], the protein stability index came out at 3.11.

As for CALNALTTTVCLVAAALRYLQWFA [I22W], the protein stability index was 3.83.

In the case of CALNALTTTVCLVAAALRYLQNFA [I22N], the protein stability index turned out to be 2.58.

With CALNALTTTVCLVAAALRYLQMFA [I22M], the protein stability index is 3.76.

In the case of CALNALTTTVCLVAAALRYLQRFA [I22R], the protein stability index came out at 2.16.

As to CALNALTTTVCLVAAALRYLQQFA [I22Q], the protein stability index was 2.9.

CALNALTTTVCLVAAALRYLQIQA [F23Q]: the protein stability index came to 4.3.

Regarding CALNALTTTVCLVAAALRYLQIEA [F23E], the protein stability index is 3.61.

CALNALTTTVCLVAAALRYLQINA [F23N]: the protein stability index is 4.28.

As to CALNALTTTVCLVAAALRYLQISA [F23S], the protein stability index came out at 3.01.

Take CALNALTTTVCLVAAALRYLQIKA [F23K]: the protein stability index came out at 2.94.

Consider CALNALTTTVCLVAAALRYLQIYA [F23Y], for which the protein stability index came out at 2.85.

Take CALNALTTTVCLVAAALRYLQIRA [F23R]: the protein stability index came out at 3.81.

For CALNALTTTVCLVAAALRYLQICA [F23C], the protein stability index was 3.26.

As to CALNALTTTVCLVAAALRYLQIPA [F23P], the protein stability index turned out to be 3.42.

For the variant CALNALTTTVCLVAAALRYLQIHA [F23H], the protein stability index came to 4.92.

Take CALNALTTTVCLVAAALRYLQIGA [F23G]: the protein stability index was determined as 4.67.

On to CALNALTTTVCLVAAALRYLQIIA [F23I], for which the protein stability index was 3.76.

In the case of CALNALTTTVCLVAAALRYLQITA [F23T], the protein stability index was 2.22.

For the variant CALNALTTTVCLVAAALRYLQIVA [F23V], the protein stability index was 4.08.

As to CALNALTTTVCLVAAALRYLQILA [F23L], the protein stability index came out at 3.45.

As to CALNALTTTVCLVAAALRYLQIDA [F23D], the protein stability index is 2.47.

In the case of CALNALTTTVCLVAAALRYLQIMA [F23M], the protein stability index is 4.05.

These data come from the supplement of paper PMC10567573.
